# Laboratory results from the domain aggregation screens of Martell et al. (2025).
# Experiment: soluble fraction after stress (log2 fold change); higher = more stays soluble; pooled small domains, quantitative proteomics
# Conditions: stress: 50 degC
# How it was run: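 After stress at 50°C, the amount of each protein still soluble was measured. This was done on pooled custom libraries of small protein domains, using high-throughput quantitative proteomics. The figure given is a base-two log fold change and stands for aggregation propensity, with higher values meaning more protein stays in solution.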
row,Sequence,soluble fraction (log2)
1,HMYSYSGSVSNTHDVPVSVVLKDAEGVAIASWDLQAKQSLNISAKDIATSSGTIEITGDGVSETKTVTFTK,0.391
2,HMHSILDDIPTVGPARRKALMRRYESLEAIRQATVDELKELPEINEASAEAIVSFFAGQAKEG,-0.0626
3,HMASDYYTTTANLNLRSGAGTTYGSLIIIEKGDTVKLLENVNDHWVKIQYDDKIGYVAMSYLLPIE,-0.484
4,HMQISDESQLREVVSKILEENEQSVIDYKNGKTRAMGFIIGQVMKATRGKANPQLVNEIVKEMLDE,0.097
5,HMKLRLGVNIDPVATVRNARGSAYPDPVRAAIIAQEAGADGITAHLREDRRHIVDQDITSIIKAIDIPLNF,-0.0391
6,HMQTASVRFADGQLEVKQKGLQRVSVYSLNGMTVANKAVQGQDYVTISLPRAAYIVKITTQNGSFTKVI,-0.207
7,HMDYDDLVPLDARGRLRLDGQDIILAFGRHRGRSIEEVHNHDKSYFDWLVSPAGGLEDEVIATLRERF,-0.607
8,HMRTKLEEAVEWLQEQLNDGPVLSKELESEAKAADILPGTLRRAGEALGVVKQKQGGRGGWTWSLPR,0.14
9,HMSVTPLLDATEKDKTKYRDLWLVAVVKNGVNYARKYKFGYVYAWLYRHDRDWLLQVNNQHKIPNIT,0.127
10,HMAKRKTEKTSVLEEIDGVGKARARALLARFGGLSGVKAASPEELRTVRGITPEIAENIRRYFQ,0.121
11,HMEMNDFETLRDMYLTGKIWNVGDIVEANGVRGKVIRKGTNYLSFVDEDNKVHKAWLYDIEE,-0.197
12,HMGLSASVIQMFADLGYTSEGRSTKEMITDYQIDHSIIKNSTEDGAGTYGPRTKASLSTVHAQYI,-0.103
13,HMGRNSTPKEPLKKFEVSPITEKEVRILDGRFGPYITDGATNVTVPKTITIEEITFERALDMLAEKAAKGP,0.0252
14,HMEALQKVSINYYDEGAGKQIAEVPLEVGAGDTEIALAVINKYMPAEYNLVSTDYQIRGGYVYVSVTPA,-0.072
15,HMTKYEGLSLDLIIDGVVITHNLKLAKLDMNWLLDRLKENGWDNPKDIFYAYIDTAGNFRFQPKLKASRTR,0.202
16,HMERFLENAIPVLGETGLDIKSATEDFENALIRQALHLSGGNKNRAATLLGLKRTTFVEMLKRKSL,-0.806
17,HMTEKIEWYKEVLDLEPNSKIFFPLAKMLEKEGELEEARRVLAEGVSRHEEFLEARLFYISVLSRL,-0.169
18,HMGETDDDFRELEEFVEKTKFDKLGTFMYSKEEGTPAARLPEQIHGNTKKSRYNKIMSIQQKVSNEN,-0.0112
19,HMFADLNPDENYGQVYIRTNTIDNLYQTLLDNKTRIHPNGLLELKPWGQKEFSILDPDKNLLTFGES,0.0797
20,HMTTIRQQAEVPLSAAGRRFDQALAEMFPAYSRSRLSGWIKAGAATLDGAPAAPRQLLRGGERVELDVELE,-0.0501
21,HMREIKSNEILLEVENLKNSEFFNDINFNIKKGEIVGFSGLIGAGRTELALTLFGYYKAESGKVIQ,0.061
22,HMKYSNDFDKVSYSLGLSIASNLISSGVKTLNAEAFNDGLATVFEGRMPEINPDEANKILQNFFEGLQKE,0.0191
23,HMSEISAEAGKRIRYFRKSRSMTLEELAAVIHKSKATLSKYETGEISIDLDTLYDLAVALQVRAEQLLPAS,-2.29
24,HMLLAPLRLGAAPDIKAQAPLATILARHNGEMEAKDLWQRFGGEIDAFYLQLKTEVAHGWIVEPEPA,-0.816
25,HMEQVTMSNFLDKWGTSTKSPNAWYTSLSPMQKAEAKLLKEESGLTWNKWYEKNIYVGDGTN,0.249

row,Sequence,soluble fraction (log2)
1,HMTMKNPNGYGSVINLGKGRRRPWAARVTTGLVYDEKKDKLIQRYKYIGYADTRKEAHQILAEYNAGLPI,-1.43
2,HMTTYVNGSWSGWNGSTVVKLTDGSVWRQAEYHYEYHYAYRPQARLERDELFVEGMSRGVRV,-0.104
3,HMKRITKKELKQAIVDVFADKPGQSFNYKQLATIIGIKDDPTRRMITDILYELVQEERIVELYRGKFKMEM,-0.66
4,HMGQVLEGVFRRKANGKNAFIPDGGGEPILVAERNSAHAMDGDRVKATLLARRKHHVREAQVTEILKRSSK,-0.0521
5,HMQIVPVDYSTFMQSIDDKTVDHVEIQSNQILYTVKDDHKKYKTGIMNDPTLAQRLMESGATFTQD,0.0939
6,HMEPAPPPAAPPADPELQKRIDKLVEYIGKNGPEFEAVIRDKQHDNPDYAFVFGGEGHAYYRYLLWLLPRP,0.00294
7,HMTIKTAFPAEDLAKPDNFKSLLYYFGLLTIRGTKWGSTLLAIPNLTVREQLYSYLVEAYRSADL,0.291
8,HMTSKTLSADGGENTRLDKFLSNHLPEISRTKIQKMINDGLVYVNQNYAKASLVLDGTELISYTIPD,0.0679
9,HMDVAAQITYAMRTMGVAPIPRNYELFYEAYIGSNPALTKELAALGSKATQEELDELGQQYF,-1.93
10,HMGIKSSASLQEAAEKAQSAYYDIEHSGVATAVDIQRAWVAMVAAQIDAGEKLDSGTITLYERLKTST,0.0423
11,HMTGETWAERSRALAAAGLIVMGQEAKNKIEDLPSLSPLIEAAAASETRLLTGQIIDELLAFV,-0.288
12,HMTALSIGTVVRFTGDRHYISSTGDTGYPASPGLAKITSINPGSKHPYHLIHIDNTSNVYGWVNKQDIIT,0.16
13,HMLAKYEIIKQDIIQMIEEKKFKPGDKIYSEGELKKIYNVSSTTVVRALQDLVLSGYLIRKQGEGTYVRK,-1.23
14,HMEHTPYLTEREADVVRLLVSGLDTAQIAQRLGIKTATVTAHKKHIFLKIGVRNTTQLVAWALIR,-2.34
15,HMKAERLLALLTILLSGKRVSARWLSEELEVSERTVYRDVEALSEAGFPVYATTGRDGGFSLIDGF,-2.08
16,HMEAKKVIAVHIIGEINKPGIVELEEGARVIDAIKKAGGTTEKADLAQINLAYILKDGQKIYIPNTEDN,0.0276
17,HMKPSTETLYATARINVRAAADTSAEKLGSIEMGEAVVRTGTDGDWSIIEYNGSTGYVKSEYLTANAGDAT,-0.0962
18,HMVTINTASLEKAIADAKAVVKESYTTDSYNAMKAVLDEAEDLLKEEAQDQDTIDAKTEALNAAIEALVKR,0.0369
19,HMGANSAYMAMRDRIQQRLLAELSPGVTRSDTAEVRRVVERIFNETTAELGLPLSRLERNDIFDLVLADIL,-0.792
20,HMKIERKGDESYLSFVERATSALSDGLIDYQQWGRAVVGEDLYSEENTRRIAKFFAQFIQNLEND,-1.9
21,HMVQLAEGERYRRIQEANDFINRQQWPGKAAMGRLKDTEKAQYNLWLDYLDALEAVDTSSAPKINWPVPPE,0.167
22,HMIGELVVEDLAAASEINVDTIRYYQRLGLLEPPRRRGRRAVYDHTHLERLAEIRRLAGAGFTLAQIGRLK,-2.53
23,HMRYTAAEMAKKLDISRSYLYYLKEAGVVEIEKNENGKPIWTESVYNQLFEYIKKNHRTEEADNTQ,-0.578
24,HMSPIQLKYNEYLIYIDEGKINTAEIHGNKITGKLKEGSEYVVTIYPELIASITEKLAENNVQTQLIQ,-0.0206
25,HMPVEQVWHIAEAGKTKGPFSRASMGRMSADGALTRDTLVWTAGQDGWKKAADVTALATLFT,-0.0223

row,Sequence,soluble fraction (log2)
1,HMLQEHVLEIRHPSWNDAFRIIGHDGWRTQTGAHAAILSYDEEELNIKWDSWGYERFIRDEKGIFRLAA,-0.055
2,HMDASVTIEQVERMVQANVSDDVIISQLQGRGAAQNLSTDDIINLTQKGISAEVIKAYQSAG,0.0658
3,HMVAEPVYGKVTEGPLNVRSAPSTDSEKVDSFSTGKVLTILETLDGWYKVEEGYVSADYVTIIDAAEAASS,0.00408
4,HMEPELLTTKQVASVMNIGEERARAILLSRGVQPVSLPWGKERKTLRWSRRAVMTVIDTLHAEAQAKAGV,-0.582
5,HMVISLREINLIGVYGRPNARRALVRLSNGRYVRVEVGSDLDGGKVTAIGDEALNFVKRGRTYAIQLPA,-1.55
6,HMTENQKNIDLIKIVSLLVHAAKIDENYTNKEKELIINFINNFSKENKQNIKSSEILEEAEKYEK,0.0572
7,HMTEDNDLETIAYDILKERNLNNININVKNGVLNIYGKTETLKEKREIEKILSSLNVSKINNLIKI,0.315
8,HMEINKLIELIGGYKALSEVLNVSKSAISNYKKRGSLPSYAIPIIVKELKSKGISIDLSEFT,-0.66
9,HMAAINPSALREPATPPEQLSAGDSVLHPRFGRGEILELQQQGGDPRAIVQFINEPKPRTLVLRYAQLRK,-0.049
10,HMSEITMMQMEIPEGHNWENRLVKDVSMPTGSLAVMIKRHGETLIPGGDTRILAGDTIVLSVPAYESG,-0.0716
11,HMSSFFLIDVSQVRIGMYIQLDVGWMRHPFPVNSFRITNQEQLDTLRSLNLAQVRWSPAKSDL,-3.77
12,HMPNSIKAPAYLHNIARIYDHVLIDVEKASSAYEKLIKKYPNHPLSINAKLYLENAFNRSDEELLNMIKEN,-0.798
13,HMSDNHYLLEIFLADLKSDEKFIRELAIFQLHHHIESDKVRAELKAAAETESDPYLKGMIESLLSSTS,-0.943
14,HMRLIDVFELSPKNRTVLQLYYYEGYSVTEISKILKISVNGVTSRLSRARSKLKLEMEAAENE,-0.316
15,HMLEQSYYEKTDEIIELHGAKASSLIPVMQDVQAEYRYLPGELLSYIADKLGIPLAKAYSVATFYENFS,-0.358
16,HMNSHQNELDNALTEAHTASRRLLEGTDEYLDLSSQPAYIRRLQHLLAQKYNLGSLSSGVEPNRHIRLLQ,-0.143
17,HMERGEFQKLGRATLEQTLARAGKTLAEVSLKAMLETFAFAAEEDLYEALGRGRVSAAKVGETLFPALKGR,-0.0985
18,HMQPHLSADEEHLLKILGSDTMHIDALVKRSTLETSNALAALAFLEMKGLVKNIGNMHYIRTYR,-0.139
19,HMYEVDGLGIRIAQLRKKQDLTQEAFARTLGVSPQAVSKWETGIGYPDITLLPQIAKELGVSIDQLFGRN,0.065
20,HMQTPPGRYRHYKGGLYEVIATARHSETLEPMTVYRALYGEQGLWVRPAAMFAEDITLEGVRQPRFARI,-1.91
21,HMASALDFGRYVRSQYSLQEFPLILIAPLNDPHPKEVVRELFNLYLTKPITRSRLFDSLMTVLG,-0.753
22,HMVDVEMLTTVSDHIEAKLLQGILENHGIPSYSVDEESGEYMRVYMGYSIFGEKIYVRASDLLAAQGYL,-2.25
23,HMAVLEGPAGKLGIVRFEANRSFTGMGHERFSSADQAFGTKPAAVVASRLFATGQVAGVHVYGNIITVELA,0.528
24,HMAMESDELETLVDQLIVDHPDEWSRFVGGDDGDRKKMQGFFTGQIMKATKGQADGRAVAQLLGQKSA,0.0334
25,HMPRKLDDQLQEQIRYLKSNYPRMSAAGIFRQLQDNGSIKHGDVSESTINRYVNLLSIEMKTTT,-0.223
